The target in the series is F7 protein.

These results are taken from US20020106675.

B1: Pfu DNA polymerase (α-type DNA polymerase) (protein)
chain: MILDVDYITEEGKPVIRLFKKENGKFKIEHDRTFRPYIYALLRDDSKIEEVKKITGERHGKIVRIVDVEKVEKKFLGKPITVWKLYLEHPQDVPTIREKVREHPAVVDIFEYDIPFAKRYLIDKGLIPMEGEEELKILAFDIETLYHEGEEFGKGPIIMISYADENEAKVITWKNIDLPYVEVVSSEREMIKRFLRIIREKDPDIIVTYNGDSFDFPYLAKRAEKLGIKLTIGRDGSEPKMQRIGDMTAVEVKGRIHFDLYHVITRTINLPTYTLEAVYEAIFGKPKEKVYADEIAKAWESGENLERVAKYSMEDAKATYELGKEFLPMEIQLSRLVGQPLWDVSRSSTGNLVEWFLLRKAYERNEVAPNKPSEEEYQRRLRESYTGGFVKEPEKGLWENIVYLDFRALYPSIIITHNVSPDTLNLEGCKNYDIAPQVGHKFCKDIPGFIPSLLGHLLEERQKIKTKMKETQDPIEKILLDYRQKAIKLLANSFYGYYGYAKARWYCKECAESVTAWGRKYIELVWKELEEKFGFKVLYIDTDGLYATIPGGESEEIKKKALEFVKYINSKLPGLLELEYEGFYKRGFFVTKKRYAVIDEEGKVITRGLEIVRRDWSEIAKETQARVLETILKHGDVEEAVRIVKEVIQKLANYEIPPEKLAIYEQITRPLHEYKAIGPHVAVAKKLAAKGVKIKPGMVIGYIVLRGDGPISNRAILAEEYDPKKHKYDAEYYIENQVLPAVLRILEGFGYRKEDLRYQKTRQVGLTSWLNIKKS
As to B1, the “ratio of the primer extension activity to the incorporation activity, about 320 kilodalton gel filtration fraction (Pfu DNA polymerase-F7 complex); about 76 kilodalton fraction (Pfu DNA polymerase alo)” value was “the ratio of 0.65 was obtained for the about 320 kilodalton fraction”.
